Article PMC5428264, “Dentin sialoprotein facilitates dental mesenchymal cell differentiation and dentin formation” (Scientific Reports, 2017)

What was measured:
[1] = target: T1, GST-DSPf5 fusion protein (COOH-terminal DSP domain aa 363–458) (mouse, UniProt P97399 363-458); assay: co-IP; in vitro immunoprecipitation: 10 μg of purified GST-DSP and GST-Ocln fusion proteins mixed, precipitated with DSP or Ocln antibody and protein G Sepharose, blotted with the other antibody; details: both partners purified
T1 construct: also called DSP peptide; source: E. coli BL21, purified (GSTrap 4B)
T1 sequence (looked up): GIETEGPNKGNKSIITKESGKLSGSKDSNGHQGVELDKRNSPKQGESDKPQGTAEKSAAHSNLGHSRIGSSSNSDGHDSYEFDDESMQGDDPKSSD

[2] = target: T2, biotinylated DSPf5 (recombinant DSP aa 363–458) (mouse, UniProt P97399 363-458, biotin (Sulfo-NHS-LC-biotin)); assay: ELISA; substrate binding assay: OclnL2 coated at 1 μg per well (BSA as control), biotinylated DSPf5 at 0–18 fold molar excess in PBS with 1% BSA, room temperature, different time periods; AP-conjugated streptavidin, PNPP, 405 nm; details: both partners purified
T2 construct: The same recombinant protein as m6, labelled with biotin; source: E. coli BL21, purified (GSTrap 4B), then reacted with Sulfo-NHS-LC-biotin
T2 sequence (looked up): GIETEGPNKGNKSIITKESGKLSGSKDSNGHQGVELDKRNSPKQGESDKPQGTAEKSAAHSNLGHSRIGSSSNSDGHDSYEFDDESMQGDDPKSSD

B1: GST-OclnL2 fusion protein (occludin extracellular loop 2, aa 194–241) (domain or fragment, mouse, UniProt Q61146 194-241, looked up)
chain: GVNPTAQASGSMYGSQIYMICNQFYTPGGTGLYVDQYLYHYCVVDPQE
notes: occludin, mouse, extracellular loop 2, residues 194-241 counted from the translation start site; Cloned into pGEX-6P3 from pBluescript SK-Ocln; also called Ocln loop2; extracellular loop 2 of Ocln; source: E. coli BL21, purified (GSTrap 4B)
binding result [1]: binds | binding result [2]: binds
